The chains are these.
T1: extracellular domain of human CD79b (human, UniProt P40259 29-159)
T1 construct: also called huCD79becd; huCD79b-ecd
T1 sequence: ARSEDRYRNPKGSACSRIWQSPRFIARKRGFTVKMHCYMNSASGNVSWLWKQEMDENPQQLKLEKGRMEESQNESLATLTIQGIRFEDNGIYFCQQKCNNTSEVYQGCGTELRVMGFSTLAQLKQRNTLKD

B1: huMA79b graft variant SEQ ID NO: 17 (Fab, name in Kabat numbering, V domains shown)
VH: EVQLVESGGGLVQPGGSLRLSCAASGYTFSSYWIEWVRQAPGKGLEWVGEILPGGGDTNYNEIFKGRFTISADTSKNTAYLQMNSLRAEDTAVYYCTRRVPVYFDYWGQGTLVTVSS
VL: DIQMTQSPSSLSASVGDRVTITCKASKSVDYDGDSFLNWYQQKPGKAPKLLIYAASNLESGVPSRFSGSGSGTDFTLTISSLQPEDFATYYCQQSNEDPLTFGQGTKVEIKR
notes: Fab on phage; rest as huMA79b graft; also called SPL-2 mutation
B2: huMA79b graft variant SEQ ID NO: 26 (Fab, name in Kabat numbering, V domains shown)
VH: B1 VH
VL: B1 VL with K27Q, S56R, N57Y, E59K, S60R
notes: Fab on phage; rest as huMA79b graft; also called L2-29 mutation
B3: huMA79b graft variant SEQ ID NO: 30 (Fab, name in Kabat numbering, V domains shown)
VH: B1 VH
VL: B1 VL with K27Q, S56R, N57K, E59R
notes: Fab on phage; rest as huMA79b graft
B4: huMA79b graft variant SEQ ID NO: 24 (Fab, name in Kabat numbering, V domains shown)
VH: B1 VH
VL: B1 VL with K27Q, S56R, N57K, E59G, S60N
notes: as for B3
B5: huMA79b graft variant SEQ ID NO: 23 (Fab, name in Kabat numbering, V domains shown)
VH: B1 VH
VL: B1 VL with K27Q, N57R
notes: as for B3
B6: huMA79b graft variant SEQ ID NO: 31 (Fab, name in Kabat numbering, V domains shown)
VH: B1 VH
VL: B1 VL with K27Q, S56R, N57K, E59G
notes: Fab on phage; rest as huMA79b graft; also called L2-38 mutation
B7: huMA79b graft variant SEQ ID NO: 33 (Fab, name in Kabat numbering, V domains shown)
VH: B1 VH
VL: B1 VL with K27Q, A55S, S56R, N57Y, E59S, S60R
notes: as for B3
B8: huMA79b graft variant SEQ ID NO: 25 (Fab, name in Kabat numbering, V domains shown)
VH: B1 VH
VL: B1 VL with K27Q, S56R, N57K, E59K, S60R
notes: as for B3
B9: huMA79b graft variant SEQ ID NO: 21 (Fab, name in Kabat numbering, V domains shown)
VH: B1 VH
VL: B1 VL with K27Q, E97K
notes: as for B3
B10: huMA79b graft variant SEQ ID NO: 28 (Fab, name in Kabat numbering, V domains shown)
VH: B1 VH
VL: B1 VL with K27Q, S56R, N57K, E59A
notes: as for B3
B11: huMA79b graft variant SEQ ID NO: 19 (Fab, name in Kabat numbering, V domains shown)
VH: B1 VH
VL: B1 VL with K27Q, E59K
notes: as for B3
B12: huMA79b graft variant SEQ ID NO: 18 (Fab, name in Kabat numbering, V domains shown)
VH: B1 VH
VL: B1 VL with K27Q, L58R
notes: as for B3
B13: huMA79b graft variant SEQ ID NO: 34 (Fab, name in Kabat numbering, V domains shown)
VH: B1 VH
VL: B1 VL with K27Q, A55G, N57K, E59L, S60R
notes: as for B3
B14: huMA79b graft variant SEQ ID NO: 32 (Fab, name in Kabat numbering, V domains shown)
VH: B1 VH
VL: B1 VL with K27Q, S56R, N57H, E59K, S60R
notes: as for B3
B15: huMA79b graft variant SEQ ID NO: 29 (Fab, name in Kabat numbering, V domains shown)
VH: B1 VH
VL: B1 VL with K27Q, S56G, N57I, E59A, S60R
notes: as for B3
B16: huMA79b graft variant SEQ ID NO: 20 (Fab, name in Kabat numbering, V domains shown)
VH: B1 VH
VL: B1 VL with K27Q, E97S
notes: Fab on phage; rest as huMA79b graft; also called SPL-5 mutation
B17: huMA79b graft variant SEQ ID NO: 27 (Fab, name in Kabat numbering, V domains shown)
VH: B1 VH
VL: B1 VL with K27Q, S56R, N57K, E59K
notes: as for B3

Residue numbers refer to the chain shown, from its start.

For the assay, the target named is T1, extracellular domain of human CD79b. Nature of the assay: phage selection, Fab on phage, plate-bound huCD79becd.
Regarding B1, the binding result is given as “binds”.

For B2, the binding result is given as “binds”. Then B3, with “binds”. Then B4, with “binds”.

Take B5: the binding result is “binds”. As for B6, the entry is “binds”; as for B7, “binds”.

For B8, the binding result is listed as “binds”. Then B9, with “binds”; and B10, with “binds”. As for B11, the entry is “binds”; as for B12, “binds”; as for B13, “binds”. Then B14, with “binds”. As for B15, the binding result is given as “binds”. In the case of B16, the binding result is listed as “binds”. For the molecule B17, the binding result is “binds”.
